Measurements published in a protein production outcome set (Wang et al. 2014).

Assay: label from the status in PepcDB records
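Note: failed if final PepcDB status was selected cloned or expressed and not failed if soluble or beyond.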

Row | Sequence | protein production
1 | MSLSIVRIDAEDRWSDVVIYNNTLWYTGVPENLDADAFEQTANTLAQIDAVLEKQGSSKSRILDATIFLSDKADFAAMNKAWDAWVVAGHAPVRCTVQAGLMNPKYKVEIKIVAAVEGHHHHHH | not failed
2 | MSLSLSHFRITRFQFARDRVIGDSQVRADDVNVAALELVSESGEVGLGFIQTLFNPLPDQQEIESVFEHEVWPSLKGNRAIALVHRVNRPRGGNQRAYSLPFHEAVQVALWDLAAKEAGLPLHVLLGSRRNRVKAYASGLDFHLDDDAFVSLFSHAASIGYSAFKIKVGHRDFDRDLRRLELLKTCVPAGSKVMIDPNEAWTSKEALTKLVAIREAGHDLLWVEDPILRHDHDGLRTLRHAVTWTQINSGEYLDLQGKRLLLEAHAADILNVHGQVTDVMRIGWLAAELGIPISIGNTFLEAGVHMAVALPEVEWLEYSFQNFDHLVEQPIEIRDGYAYAPDRPGHGLVLSEKARGEWSRPRRLARSELGAAPENPRLPAKEGHHHHHH | not failed
3 | MSLSTAADLLRQGAACSVLYLTSVETESLTGPQAVARASSAALSCSPRPTPAVVHFKVSAQGITLTDNQRKLFFRRHYPVNSITFSSTDPQDRRWTNPDGTTSKIFGFVAKKPGSPWENVCHLFAELDPDQPAGAIVTFITKVMLGQRKEGHHHHHH | not failed
4 | MSLSTIRIGGAAVNQTPIDWENNVKNILDAIEEAKNANVEILCLPELCITGYGCEDLFLTDWVAETAIEYCFEIAASCTDITVSLGLPMRIAGITYNCVCLVENGIVKGFSAKQFLANEGVHYETRWFTAWPRNHTTTFLYNDVKYPFGDVLYNVKDARIGFEICEDAWRTDRVGIRHYEKGATLVLNPSASHFAFGKSAIRYDLVIGGSERFDCTYVYANLLGNEAGRMIYDGEVLIAHKGKLIQRNDRLSFKNVNLIYADIATDSAETPETVLTQDDLEKEFEFWEATSLGLFDYMRKSRSKGFVLSLSGGADSSACAIMVAEMIRKGLKELGLTAFLQKSNMETLFDLPALQHLPFEEQAKKITAVFLTTAYQSTRNSGDETYTSAKTLAESIGATFYNWSVDEEIEQYKATIENVIERPLTWEKDDITLQNIQARGRAPIIWMLTNVKQALLITTSNRSEGDVGYATMDGDTAGGIAPIAGVDKDFIRSWLRWAEKNRNQHGLHIVNKLAPTAELRPSEYTQTDERDLMPYDVLARIERKAIKERLSPVQVYTALLTEGPYTKNEFKYWVKKFFRLWSINQWKRERLAPSFHMDDFNIDPRSWYRFPILSSGFAKELNDLDQEGHHHHHH | not failed
5 | MSLSWEIEELDREIGKIKKHSLILIHEEDASSRGKDILFYILSRKLKSDNLVGMFSISYPLQLIIRILSRFGVDVIKYLENHRLAIVDTFGSFHGIKATMPGVWYLEGMLSSETLPIKYAKAVEDHKKVWMDLNLFEGRELYGFAISMSGYLEVFTPEETLRYLETSAEVRYGHPAYKKYPRGTNFWLWEGVKDKRVLLSVYRRADYVLKTRSSLGENGIKRELLVIKTPKPIEELVRFEYEFKGNEPKLRREGHHHHHH | not failed
6 | MSLTDEPKLLAEPREGVPNVIDTLPAFRDYCSELASSHGSLAADAERASGFRYGHEDWLVQFKRDGAGIGLLDPQALAAAGADWNDFNRAVGDAVWILHDSLQDLPGFDELGMEPQRLFDTEIAARLLGLKRFGLAAVTEHFLGLTLAKEHSAADWSYRPLPRDWRNYAALDVELLIELETKMRAELKRQGKMEWAQEEFDYALKEGLGPRKEHLIPWMHVSHITEVMRDRQALAIVRALWTRRDELAREYDIAPTLLLSDSSIIEVAKRKPHNAAQFRSIRSINERVRIHTDSEQDKMFERYAPIQRKIKPSMWKNIIQDALALPPSEWPDVDGGAARRHESQSASAPKSIRVWKERYPERLQVLNRVRKAVSQIAEDTRTPVEIVIKPQYLRNLCWTDEPRKRDVARFLSEQGARDWQVSLVAESVSRAIEGHHHHHH | not failed
7 | MSLTGNAQAATIADPSTLVVDTVGPVLTIGLNRPKKRNALNDGLMAALKDCLTDIPDQIRAVVIHGIGDHFSAGLDLSELRERDATEGLVHSQTWHRVFDKIQYCRVPVIAALKGAVIGGGLELACAAHIRVAEASAYYALPEGSRGIFVGGGGSVRLPRLIGVARMADMMLTGRVYSAAEGVVHGFSQYLIENGSAYDKALELGNRVAQNAPLTNFAVLQALPMIAEANPQTGLLMESLMATVAQSDQEAKTRIRAFLDHKTAKVREGHHHHHH | not failed
8 | MSLTHVIWDMGETLNTVPNTRYDHHPLDTYPEVVLRKNAKETLEKVKQLGFKQAILSNTATSDTEVIKRVLTNFGIIDYFDFIYASNSELQPGKMEKPDKTIFDFTLNALQIDKTEAVMVGNTFESDIIGANRAGIHAIWLQNPEVCLQDERLPLVAPPFVIPVWDLADVPEALLLLKKISEGHHHHHH | not failed
9 | MSLTKIDAYAHILPAKYYQKMLSVEPNIPNMFPFIKIKTLMDLDERLTKWPDQNTKQVISLANISPEDFTDSKTSAELCQSANEELSNLVDQHPGKFAGAVAILPMNNIESACKVISSIKDDENLVGAQIFTRHLGKSIADKEFRPVLAQAAKLHVPLWMHPVFDARKPDNNLVFSWEYELSQAMLQLVQSDLFQDYPNLKILVHHAGAMVPFFSGRIDHILDEKHAQDFKKFYVDTAILGNTPALQLAIDYYGIDHVLFGTDAPFAVMPSGADQIITQAINDLTISDKDKQKIFHDNYYSLIKEGHHHHHH | not failed
10 | MSLTKVSSLGYPRLGENREWKKLIEAYWAGKVSKNDLFAGAKELRLDFLKKQLNAGLDLIPVGDFSLYDHILDLSVQFNIIPKRFAKEPIDIDLYFAIARGNKENVASSMKKWFNTNYHYIVPEWSKQRPKLNNNRLLDLYLEAREVVGDKAKPVITGPITYVALSTGVEDFTAAVKSLLPLYKQVFTELVKAGASYIQVDEPIFVTDEGKDYLQAAKAVYAYFAKEVPDAKFIFQTYFEGLIDSQVLSQLPVDAFGLDFVYGLEENLEAIKTGAFKGKEIFAGVIDGRNIWSSDFVKTSALLETIEEQSAALTIQPSCSLLHVPVTTKNETDLDPVLRNGLAFADEKLTEVKRLAEHLDGREDPAYDLHIAHFDALQAADFRNVKLEDLSRVATKRPSDFAKRRDIQQEKLHLPLLPTTTIGSFPQSREIRRTRLAWKRGDISDAEYKQFIQAEIERWIRIQEDLDLDVLVHGEFERVDMVEFFGQKLAGFTTTKFGWVQSYGSRAVKPPIIYGDVQHLEPITVEETVYAQSLTDRPVKGMLTGPITITNWSFERTDIPRDQLFNQIGLAIKDEIKLLENAGIAIIQVDEAALREGLPLRKSKQKAYLDDAVHAFHIATSSVKDETQIHTHMCYSKFDEIIDAIRALDADVISIETSRSHGDIIESFETAVYPLGIGLGVYDIHSPRVPTKEEVVANIERPLRQLSPTQFWVNPDCGLKTRQEPETIAALKVLVAATKEVRQKLGNEGHHHHHH | not failed
11 | MSLTLRVLAPDQNVFDGSADEVILPSTTGQLGILPGHISLLTAIDVGVLRVRANGGWNSIALMGGFAEVDADEVTVLVNQAELGSTIDGNTAEADFQKATTVVDGLEGQPASPEKVKAQQQLNMARARMQASKSAD | failed
12 | MSLTNHEQVLTDYLAAFIEELVRAGVKEAIISPGSRSTPLALMMAEHPILKIYVDVDERSAGFFALGLAKASKRPVVLLCTSGTAAANYFPAVAEANLSQIPLIVLTADRPHELRNVGAPQAMDQLHLYGSHVKDFTDMALPENSEEMLRYAKWHGSRAVDIAMKTPRGPVHLNFPLREPLVPILEPSPFTATGKKHHHVHIYYTHEVLDDSSIQKMVTECTGKKGVFVVGPIDKKELEQPMVDLAKKLGWPILADPLSGLRSYGALDEVVIDQYDAFLKEAEIMDKLTPEVVIRFGSMPVSKPLKNWLEQLSDIRFYVVDPGAAWKDPIKAVTDMIHCDERFLLDIMQQNMPDDAKDAAWLNGWTSYNKVAREIVLAEMANTTILEEGKIVAELRRLLPDKAGLFIGNSMPIRDVDTYFSQIDKKIKMLANRGANGIDGVVSSALGASVVFQPMFLLIGDLSFYHDMNGLLMAKKYKMNLTIVIVNNDGGGIFSFLPQANEPKYFESLFGTSTELDFRFAAAFYDADYHEAKSVDELEEAIDKASYHKGLDIIEVKTNRHENKANHQALEGHHHHHH | not failed
13 | MSLTNSSKSFTKFMAASAVFTMGFLSVPTAGAEQTNQIANKPQAIQWHTNLTNERFTTIAHRGASGYAPEHTFQAYDKSHNELKASYIEIDLQRTKDGHLVAMHDETVNRTTNGHGKVEDYTLDELKQLDAGSWFNKKYPKYARASYKNAKVPTLDEILERYGPNANYYIETKSPDVYPGMEEQLLASLKKHHLLNNNKLKNGHVMIQSFSDESLKKIHRQNKHVPLVKLVDKGELQQFNDQRLKEIRSYAIGLGPDYTDLTEQNTHHLKDLGFIVHPYTVNEKADMLRLNKYGVDGVFTNFADKYKEVIKEGHHHHHH | not failed
14 | MSLTRTQTYRATIESDIESYLKKAIPIRAPESVFEPMHHLTFAAPRTSASALCVAACELVGGDRSDAMAAAAAVHLMHVAAYTHENLPLTDGPMSKSEIQHKFDPNIELLTGDGIIPFGLELMARSMDPTRNNPDRILRAIIELTRVMGSEGIVEGQYHELGLNQLNDLELIEYVCKKKEGTLHACGAACGAILGGCDEDKIEKLRRFGLYVGTVQGLLGKNRSGFEGRIKELKELAVKELESFGGEKIELIRGVFELEHSLAGVEGHHHHHH | not failed
15 | MSLTTRHTIGARLLLAFAFSTSLLTIVSLVAWGTWSRLDYQVAELLNQSVPKYNTSYVLETRSSEIRRRIQLIVSATSKVTLNQQYQRLQEDFTAIHAALASLPQNEQQAALQQGYTELRQTTQQINDLVSARIDVDRRLALFAEQLDWLHQDIGMELSPMRQELQWQLERGGAAQPQAQVMFQTINLIQTILDGETQAFLFVDELLKAKHLTQVDNGMRVLQYRLDELSRLSQPLFTQPSSIAYQQLLEEWRNVLRLEGDFQQSLRDRVVLTQKLESTSEQLQIQLDQQHTAIADLVANADALFVQVKGQTAQLVQEGNRVLLICFGLSIGLSLLLMYYFVHKRIVGRLHRLSESLDAIIHNDLSHPITVDGKDEIGALSEQLILYGKKVEEMERTNALSLINNTQASLITCDRYGQIESANPSAMATLRLESLAQPLTLWSCFAKHVQPKVGNULLLFDKKGNLIQKGAESLTLSLGNPEKPHYLRLYLRRYSQGLHDKIIVTITDVTDQEHANRLLEQRVKEKTQSLREKNRELQAEVEERQRAEAHLKKTQGELIQAAKMAVVGQTMTSLAHELNQPLSAMSAYLFSARLALEEAPQAQLATSLDHIENLTERMGKIVNSLRHFARKNSSDESLQPVRLNSVVEQALVLVQTKAKRQQIKLINTLPDDLMVMADALSLEQVLINLIVNGCDASTTFAQPWVKLIALGTEQGMQRIAVIDSGQGFEHEVVDKLFTPFTTTKEVGLGLGLSICQSLVEKMQGRIALASNLEKGAMVILELQQDEKYRTAD | failed
16 | MSLTVVLIVDDHHLIRAGAKNLLEGAFSGMRVEGAETVSDALAFLEADNTVDLILLDVNLPDAEAIDGLVRLKRFDPSNAVALISGETDHELIRAALEAGADGFIPKSADPQVLIHAVSLILEGEIFLPRSYLQGGRMAEVATPLDEGHHHHHH | not failed
17 | MSLVAARPLVLVVDDNAVNREALILYLKSRGIDAVGADGAEEARLYLHYQKRIGLMITDLRMQPESGLDLIRTIRASERAALSIIVVSGDTDVEEAVDVMHLGVVDFLLKPVDLGKLLELVNKELKIGEGHHHHHH | not failed
18 | MSLVKKSSNVIAAVVSSVRTNFAQQILDGIQEEAHKNGYNLIIVYSGSADPEEQKHALLTAIERPVMGILLLSIALTDDNLQLLQSSDVPYCFLSMGFDDDRPFISSDDEDIGYQATNLLINEGHRQIGIAGIDQYPYTGRKRLAGYKKALKEANIAINQEWIKPGDYSYTSGEQAMKAFGKNTDLTGIIAASDMTAIGILNQASSFGIEVPKDLSIVSIDGTEMCKITRPQLTSISQDFFQMGVTGVQQIHQSVKNGSNRIVSQQFIPVNPVIRKSTARLGEGHHHHHH | not failed
